In paper PMC3418399:

Legend:
[1] = biological target: Candida albicans ATP-binding cassette transporter CaCdr1p (Candida albicans) (UniProt Q5ANA3)
[2] = biological target: Candida albicans ATP-binding cassette transporter CaCdr1p (Candida albicans) (UniProt Q5ANA3); remark: listed apart in the source

Candida albicans ATP-binding cassette transporter CaCdr1p (Candida albicans), sequence (Q5ANA3 whole entry): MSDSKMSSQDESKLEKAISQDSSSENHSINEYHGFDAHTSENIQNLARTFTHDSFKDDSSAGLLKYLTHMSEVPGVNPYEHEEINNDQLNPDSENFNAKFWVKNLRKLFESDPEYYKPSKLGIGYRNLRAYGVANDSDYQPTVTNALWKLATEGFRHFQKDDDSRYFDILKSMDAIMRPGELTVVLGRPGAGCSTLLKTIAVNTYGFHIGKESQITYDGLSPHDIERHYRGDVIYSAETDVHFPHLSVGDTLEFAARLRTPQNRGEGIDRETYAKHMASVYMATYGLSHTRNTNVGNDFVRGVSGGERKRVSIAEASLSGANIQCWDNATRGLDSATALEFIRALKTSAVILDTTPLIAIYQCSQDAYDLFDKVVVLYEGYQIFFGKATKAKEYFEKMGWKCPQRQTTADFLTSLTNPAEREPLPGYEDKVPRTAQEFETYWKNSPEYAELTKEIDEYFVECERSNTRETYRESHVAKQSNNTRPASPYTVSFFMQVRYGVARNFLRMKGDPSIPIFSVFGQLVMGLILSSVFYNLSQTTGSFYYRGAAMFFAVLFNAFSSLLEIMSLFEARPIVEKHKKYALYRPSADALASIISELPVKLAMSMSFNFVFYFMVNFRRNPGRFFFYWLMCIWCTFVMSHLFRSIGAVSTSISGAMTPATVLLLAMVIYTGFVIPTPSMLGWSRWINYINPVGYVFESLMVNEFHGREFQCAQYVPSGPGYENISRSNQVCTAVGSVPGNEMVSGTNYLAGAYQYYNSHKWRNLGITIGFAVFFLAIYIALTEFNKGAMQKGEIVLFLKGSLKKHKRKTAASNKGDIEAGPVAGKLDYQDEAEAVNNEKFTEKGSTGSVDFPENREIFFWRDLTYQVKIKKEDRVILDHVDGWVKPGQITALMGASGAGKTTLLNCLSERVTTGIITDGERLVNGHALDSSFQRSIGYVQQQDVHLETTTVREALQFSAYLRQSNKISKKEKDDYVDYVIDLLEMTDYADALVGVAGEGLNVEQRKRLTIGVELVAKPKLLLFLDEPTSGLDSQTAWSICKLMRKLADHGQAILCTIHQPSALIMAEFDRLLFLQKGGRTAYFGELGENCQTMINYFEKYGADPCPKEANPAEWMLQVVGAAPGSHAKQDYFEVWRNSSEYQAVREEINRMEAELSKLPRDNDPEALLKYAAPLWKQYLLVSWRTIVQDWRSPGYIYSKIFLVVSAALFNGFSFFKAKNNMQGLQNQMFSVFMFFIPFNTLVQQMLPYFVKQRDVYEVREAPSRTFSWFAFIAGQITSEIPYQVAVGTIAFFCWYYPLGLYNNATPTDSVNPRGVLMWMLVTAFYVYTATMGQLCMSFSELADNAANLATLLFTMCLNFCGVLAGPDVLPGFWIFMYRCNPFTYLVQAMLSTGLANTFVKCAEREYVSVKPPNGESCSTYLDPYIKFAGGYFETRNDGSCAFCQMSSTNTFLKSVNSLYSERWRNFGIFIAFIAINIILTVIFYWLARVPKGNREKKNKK

**Q.** Which IC50 of inhibition of the ATPase activity of CaCdr1p [1] does the source give for “RC1, naked D-octapeptide D-NH2-FFKWQRRR-CONH2” here?
**A.** > 200 µM

**Q.** For “RC21v3, D-NH2-FFKWQR(Mtr)RR-CONH2 (peptide)”, which IC50 of inhibition of the CaCdr1p ATPase activity, plasma membrane preparations [2] is on record?
**A.** 1.1 µM
